Results from patent US20080008651A1, “Screening Methods and Transgenic Animals for the Treatment of Beta-Globin Related Disease and Conditions” (THE REGENTS OF THE UNIVERSITY OF MICHIGAN, published 2008).

B1: epsilon-y proximal DR (dsDNA)
DNA 1: TCAGGCTGACCAATGGCTTCAAA
DNA 2: TTTGAAGCCATTGGTCAGCCTGA
B2: beta-major (dsDNA)
DNA 1: TGGTAAGGGCCAATCTGCTCACA
DNA 2: TGTGAGCAGATTGGCCCTTACCA
B3: epsilon proximal DR (dsDNA)
DNA 1: CAGCCTTGACCAATGACTTTTA
DNA 2: TAAAAGTCATTGGTCAAGGCTG
B4: beta (dsDNA)
DNA 1: TAGGGTTGGCCAATCTACTCCC
DNA 2: GGGAGTAGATTGGCCAACCCTA
B5: beta-h1 DR (dsDNA)
DNA 1: CCCAGACTCTCTTGACCAATAGCCTCAGAGTCCT
DNA 2: AGGACTCTGAGGCTATTGGTCAAGAGAGTCTGGG
B6: epsilon-y distal DR (dsDNA)
DNA 1: CCATGAGGACCACGGGTCAGGCTGA
DNA 2: TCAGCCTGACCCGTGGTCCTCATGG
B7: epsilon distal DR (dsDNA)
DNA 1: CCCTGAGGACACAGGTCAGCCTTG
DNA 2: CAAGGCTGACCTGTGTCCTCAGGG
B8: gamma DR (dsDNA)
DNA 1: GCCTTGCCTTGACCAATAGCCTTGACAA
DNA 2: TTGTCAAGGCTATTGGTCAAGGCAAGGC
B9: mouse TR2 orphan nuclear receptor, Flag-tagged at the amino terminus, wild type (receptor, UniProt Q505F1 1-590, looked up)
chain: MATIEEIAHQIIDQQMGEIVTEQQTGQKIQIVTALDHSTQGKQFILANHEGSTPGKVFLTTPDAAGVNQLFFTSPDLSAPHLQLLTEKSPDQGPNKVFDLCVVCGDKASGRHYGAITCEGCKGFFKRSIRKNLVYSCRGSKDCVINKHHRNRCQYCRLQRCIAFGMKQDSVQCERKPIEVSREKSSNCAASTEKIYIRKDLRSPLAATPTFVTDSETARSAGLLDSGMFVNIHPSGIKTEPAMLMAPDKAESCQGDLSTLASVVTSLANLGKAKDLSHCGGDMPVVQSLRNGDTSFGAFHHDIQTNGDVSRAFDTLAKALTPGESSACQSPEEGMEGSPHLIAGEPSFVEKEGPLLSESHVAFRLTMPSPMPEYLNVHYIGESASRLLFLSMHWALSIPSFQALGQENSISLVKAYWNELFTLGLAQCWQVMNVATILATFVNCLHSSLQQDKMSPERRKSLMEHIFKLQEFCNSMVKLCIDGHEYAYLKAIVLFSPDHPGLENMELIERFQEKAYVEFQDYITRTYPDDTYRLSRLLLRLPALRLMNATITEELFFKGLIGNVRIDSVIPHILKMEPADYNSQIIGHSL
notes: also called wild type TR2; not shown: Flag tag at the amino terminus

Experiments:
[1] = target: TR4 coexpressed with dnTR2 dnTR2 chain: three Lys/Arg to Glu in DNA binding domain (Mus musculus) (UniProt P49117+Q505F1); test: EMSA; conditions: TR4 binding diminished by about 80% (TR4 alone = 100%)
[2] = target: TR4 coexpressed with dnTR4 dnTR4 chain: three Lys/Arg to Glu in DNA binding domain (Mus musculus) (UniProt P49117+P49117); test: EMSA; conditions: TR4 binding diminished by about 80% (TR4 alone = 100%)
[3] = target: T1, DRED complex (TR2/TR4 heterodimer DNA-binding core) (Mus musculus, UniProt Q505F1;P49117 Q505F1:1-590,P49117:1-596); test: competition; EMSA competition vs 1.1 nM 32P epsilon distal DR probe; judged too low for functional association; conditions: protein: extract; tags: native, MEL mouse erythroleukemia cell nuclear extract; blunt ended
T1 sequence 1: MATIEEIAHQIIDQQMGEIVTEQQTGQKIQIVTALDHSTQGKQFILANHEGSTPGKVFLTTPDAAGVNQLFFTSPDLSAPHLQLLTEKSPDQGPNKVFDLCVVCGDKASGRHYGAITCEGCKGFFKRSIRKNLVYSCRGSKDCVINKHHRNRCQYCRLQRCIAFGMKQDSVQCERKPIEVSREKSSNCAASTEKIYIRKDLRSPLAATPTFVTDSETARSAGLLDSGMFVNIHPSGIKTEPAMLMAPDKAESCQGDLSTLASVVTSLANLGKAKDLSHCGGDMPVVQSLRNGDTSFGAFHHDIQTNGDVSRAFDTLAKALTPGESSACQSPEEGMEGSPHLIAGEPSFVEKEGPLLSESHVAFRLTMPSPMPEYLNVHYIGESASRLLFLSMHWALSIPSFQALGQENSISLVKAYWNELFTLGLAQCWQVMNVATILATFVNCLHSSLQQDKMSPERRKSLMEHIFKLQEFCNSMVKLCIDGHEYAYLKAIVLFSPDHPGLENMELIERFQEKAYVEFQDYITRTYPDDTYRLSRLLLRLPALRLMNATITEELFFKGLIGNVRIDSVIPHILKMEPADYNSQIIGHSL
T1 sequence 2: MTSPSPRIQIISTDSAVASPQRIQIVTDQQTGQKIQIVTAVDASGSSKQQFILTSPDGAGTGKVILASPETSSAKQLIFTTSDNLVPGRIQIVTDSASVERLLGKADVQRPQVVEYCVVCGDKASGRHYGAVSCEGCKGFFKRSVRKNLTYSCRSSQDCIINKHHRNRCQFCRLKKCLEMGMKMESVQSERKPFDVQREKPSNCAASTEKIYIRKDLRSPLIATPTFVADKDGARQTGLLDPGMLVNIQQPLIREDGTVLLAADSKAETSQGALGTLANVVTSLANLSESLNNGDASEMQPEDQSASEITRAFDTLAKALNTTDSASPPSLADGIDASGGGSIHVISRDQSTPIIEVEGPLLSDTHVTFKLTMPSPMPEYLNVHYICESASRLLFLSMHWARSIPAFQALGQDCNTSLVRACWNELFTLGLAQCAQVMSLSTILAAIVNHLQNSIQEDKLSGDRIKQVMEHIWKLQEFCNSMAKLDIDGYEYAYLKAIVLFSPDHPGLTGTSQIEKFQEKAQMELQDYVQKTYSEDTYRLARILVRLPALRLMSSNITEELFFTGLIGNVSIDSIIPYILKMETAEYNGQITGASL
Experimental: (§1) Electrophoretic Gel Mobility Shift Assay (EMSA). Nuclear extracts preparation, binding reactions, and electrophoresis were performed as described previously (Tanimoto et al., 2000). The following blunt ended oligonucleotides were used as probes or competitors in EMSA (only sense strands are shown): ε distal DR, 5′-[…]-3′ (SEQ ID NO: 19); ε proximal DR, 5′-[…]-3′ (SEQ ID NO: 20); γ DR, 5′-[…]-3′ (SEQ ID NO: 21); β, 5′-[…]-3′ (SEQ ID NO: 22); εy distal DR, 5′-[…]-3′ (SEQ ID NO: 23); εy proximal DR, 5′-[…]-3′ (SEQ ID NO: 24); βh1 DR, 5′-[…]-3′ (SEQ ID NO: 25); β^major, 5′-[…]-3′ (SEQ ID NO: 26).
(§2) Free and bound ³²P-labeled probe was quantified on a PhosphoImager. The competitive binding experiments were then performed using 1.1 nM ³²P-labeled ε distal DR probe and 70 pM to 2 μM of each competitor double-strand oligonucleotide to determine the 50% inhibitory concentration (IC₅₀). The equilibrium dissociation constant (Ki) for each competitor was then determined by the following equation (Cheng and Prusoff, 1973): […]

[4] = target: T1, DRED complex (TR2/TR4 heterodimer …); test: competition; EMSA competition vs 1.1 nM 32P epsilon distal DR probe; conditions: protein: extract; tags: native, MEL mouse erythroleukemia cell nuclear extract; blunt ended
Experimental: as §1, §2

[5] = target: T1, DRED complex (TR2/TR4 heterodimer …); test: competition; EMSA competition vs 1.1 nM 32P epsilon distal DR probe; unlabeled competitor; conditions: protein: extract; tags: native, MEL mouse erythroleukemia cell nuclear extract; label: 32P (probe); blunt ended
Experimental: as §1, §2

[6] = target: T1, DRED complex (TR2/TR4 heterodimer …); test: EMSA; saturation binding, MEL nuclear extract; conditions: protein: extract; tags: native, MEL mouse erythroleukemia cell nuclear extract; label: 32P (probe); blunt ended
Experimental: as §1, §2

[7] = target: T2, mouse TR4 orphan nuclear receptor, Flag-tagged at the amino terminus, wild type (mouse, UniProt P49117 1-596); test: EMSA of nuclear extracts of co-transfected 293T cells on the ε distal DR probe; heterodimer inferred
T2 construct: also called wild type TR4; not shown: Flag tag at the amino terminus
T2 sequence (looked up): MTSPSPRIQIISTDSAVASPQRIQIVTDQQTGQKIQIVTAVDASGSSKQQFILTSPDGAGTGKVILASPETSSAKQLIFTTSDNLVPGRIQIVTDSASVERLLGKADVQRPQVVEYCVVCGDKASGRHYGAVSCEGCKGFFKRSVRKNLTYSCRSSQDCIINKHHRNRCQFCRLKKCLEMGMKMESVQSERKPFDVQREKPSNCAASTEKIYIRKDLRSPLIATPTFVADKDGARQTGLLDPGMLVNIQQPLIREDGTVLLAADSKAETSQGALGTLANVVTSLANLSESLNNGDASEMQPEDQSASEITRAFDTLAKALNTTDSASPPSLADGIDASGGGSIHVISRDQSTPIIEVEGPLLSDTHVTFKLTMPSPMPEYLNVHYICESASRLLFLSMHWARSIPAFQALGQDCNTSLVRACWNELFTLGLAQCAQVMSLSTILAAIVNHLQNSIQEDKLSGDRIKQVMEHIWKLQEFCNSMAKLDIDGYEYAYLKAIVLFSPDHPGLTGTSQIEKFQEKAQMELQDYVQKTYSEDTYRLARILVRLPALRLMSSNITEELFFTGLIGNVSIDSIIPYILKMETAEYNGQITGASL
Experimental: 20 μg of expression plasmid was mixed with 40 μl of lipofectamine 2000 (Invitrogen) and then added to each dish according to the manufacturer's instruction. Forty-eight hours after transfection, cells were harvested and nuclear extracts were prepared.
as §1
After transfection, nuclear extracts were prepared and examined for binding to the ε distal-DR element by EMSA (FIG. 1C). […] When TR2 and TR4 were coexpressed to generate TR2/TR4 heterodimers (Tanabe et al., 2002), generated an even more intense signal.

| Molecule | Ki [3] | Ki [4] | also measured |
| --- | --- | --- | --- |
| CCCTGAGGACACAGGTCAGCCTTG (double strand) [epsilon distal DR] |  |  | binding signal [1]: 20%; binding signal [2]: 20% |
| B1 | 59 nM |  |  |
| B2 | 170 nM |  |  |
| B3 |  | 2.8 nM |  |
| B4 | 420 nM |  |  |
| B5 |  | 18 nM |  |
| B6 |  | 4.1 nM |  |
| B7 |  |  | Ki [5]: 0.97 nM; Kd [6]: 0.56 nM |
| B8 |  | 13 nM |  |
| B9 |  |  | binding result [7]: binds |
